Measurements reported in patent US20220333113.
Substitutions are numbered along the chain they refer to.

Experiments:
[1] = target: T1, RIG-I ΔCARDs (aa 229-925) (Homo sapiens) (UniProt O95786); experiment: filter; conditions: J = PPdU at every J; SB18T0.01 + 1 mM DTT, 37 C
T1 sequence: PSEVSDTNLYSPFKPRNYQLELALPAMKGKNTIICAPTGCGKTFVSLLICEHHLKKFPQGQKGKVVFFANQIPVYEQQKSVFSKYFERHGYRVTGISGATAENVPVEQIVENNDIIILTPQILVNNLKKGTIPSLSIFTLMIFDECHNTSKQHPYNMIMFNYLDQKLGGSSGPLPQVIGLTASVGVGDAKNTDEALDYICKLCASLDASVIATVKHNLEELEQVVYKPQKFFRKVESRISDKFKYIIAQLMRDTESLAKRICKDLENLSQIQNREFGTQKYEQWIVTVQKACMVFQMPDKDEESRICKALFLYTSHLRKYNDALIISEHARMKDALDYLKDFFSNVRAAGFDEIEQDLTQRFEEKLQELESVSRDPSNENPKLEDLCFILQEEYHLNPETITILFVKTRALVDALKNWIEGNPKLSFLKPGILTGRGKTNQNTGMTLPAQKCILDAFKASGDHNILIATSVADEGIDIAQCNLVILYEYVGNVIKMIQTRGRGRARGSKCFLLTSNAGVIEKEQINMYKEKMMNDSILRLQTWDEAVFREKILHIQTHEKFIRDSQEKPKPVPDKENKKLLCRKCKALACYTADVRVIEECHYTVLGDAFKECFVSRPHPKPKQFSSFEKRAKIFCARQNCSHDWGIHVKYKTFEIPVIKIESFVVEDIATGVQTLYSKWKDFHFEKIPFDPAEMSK

[2] = target: T2, RIG-I WT full-length (Homo sapiens) (UniProt O95786); experiment: filter; conditions: J = PPdU at every J; SB18T0.01 + 1 mM DTT, 37 C
T2 sequence: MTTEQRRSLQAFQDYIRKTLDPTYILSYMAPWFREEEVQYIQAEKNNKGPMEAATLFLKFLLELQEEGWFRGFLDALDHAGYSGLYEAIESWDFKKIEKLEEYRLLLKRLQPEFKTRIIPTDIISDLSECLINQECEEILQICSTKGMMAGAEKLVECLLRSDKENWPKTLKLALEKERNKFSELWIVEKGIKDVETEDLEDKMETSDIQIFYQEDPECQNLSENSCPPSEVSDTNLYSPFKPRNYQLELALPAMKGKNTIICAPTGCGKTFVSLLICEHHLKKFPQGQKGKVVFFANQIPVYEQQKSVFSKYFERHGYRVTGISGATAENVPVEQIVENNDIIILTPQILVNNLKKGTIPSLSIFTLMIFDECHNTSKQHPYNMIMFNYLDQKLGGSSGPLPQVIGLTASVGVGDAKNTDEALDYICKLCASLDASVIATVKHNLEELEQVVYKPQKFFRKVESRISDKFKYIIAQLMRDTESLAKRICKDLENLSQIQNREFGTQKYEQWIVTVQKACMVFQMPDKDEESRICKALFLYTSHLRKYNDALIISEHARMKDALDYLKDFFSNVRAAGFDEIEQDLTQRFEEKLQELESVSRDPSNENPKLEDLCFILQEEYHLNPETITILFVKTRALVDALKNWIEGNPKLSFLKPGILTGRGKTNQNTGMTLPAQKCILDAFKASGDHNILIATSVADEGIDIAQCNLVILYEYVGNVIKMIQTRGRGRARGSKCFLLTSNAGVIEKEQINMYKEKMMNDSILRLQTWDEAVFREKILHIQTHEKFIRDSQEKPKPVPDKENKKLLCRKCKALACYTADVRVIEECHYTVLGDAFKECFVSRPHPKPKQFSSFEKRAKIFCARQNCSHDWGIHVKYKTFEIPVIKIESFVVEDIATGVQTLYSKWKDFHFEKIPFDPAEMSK

[3] = target: T3, RIG-I R664A (Homo sapiens) (UniProt O95786); experiment: filter; conditions: J = PPdU at every J; SB18T0.01 + 1 mM DTT, 37 C
T3 sequence: T2 sequence with R664A

[4] = target: T4, RIG-I CTD (aa 792-925) (Homo sapiens) (UniProt O95786); experiment: EMSA; conditions: J = PPdU at every J; SB18T0.01 + 20% glycerol, 1 mM DTT, 37 C
T4 sequence: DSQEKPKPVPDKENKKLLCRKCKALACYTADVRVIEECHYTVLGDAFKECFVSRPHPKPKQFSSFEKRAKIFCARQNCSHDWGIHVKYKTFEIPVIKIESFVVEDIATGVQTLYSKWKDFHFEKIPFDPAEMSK

ATCTCTGTGTCATGTGTTTTAATGTCAGTTTAATGATGAGG [14832-55_8]
Kd [1]: 0.013 nM
Kd [2]: 0.56 nM
Kd [3]: 0.41 nM
Kd [4]: 0.019 nM
